This is an account of results in patent US20260365692A1, “COMPOSITIONS COMPRISING PROTEINS DISSOLVED IN FLUORINATED SOLVENTS, AND METHODS OF MAKING AND USING THE SAME” (priority 2022, published 2026).

Data set [1] can be described thus: Pharmacokinetics of β-Gal in C57BL/6J mice (Example 3). It counts as in vivo. To be noted: i.v. tail vein. On the procedure: Two groups (n=5) of C57BL/6J mice received […] of 10 μM solutions of β-Gal that was either 1) prepared in sterile PBS or 2) dissolved in PFOc (1 mM PFNA) and extracted into sterile PBS. Due to the large solution volumes given (150 μL, ~15% of mouse blood volume), PFOc dispersed proteins were extracted into sterile saline before injection to avoid hyponatremia. Samples were administered by tail vein injection.
At a series of time points, mice were sacrificed, and blood samples collected via cardiac puncture. Bioactivity and bioavailability of β-Gal was determined by conversion of the fluorescent substrate, 4-Methylumbelliferyl-[…] (β-GAL). Whole blood collected in a serum tube was centrifuged at 2000 rcf for 4 minutes to extract serum containing β-Gal protein. 20 μL of the serum was then mixed with 180 μL μ-GAL (for a final substrate concentration of 1 μM). Samples were quickly pipette mixed and incubated in the dark at room temperature for 5 minutes. Fluorescent intensity was measured with λex=360 nm and λem=440 nm. The background fluorescent intensity from serum was determined from serum dilution in PBS without μ-GAL substrate.

A short description of data set [2]: Acute toxicity of β-Gal formulations in mice (Example 4). It is filed as in vivo, C57BL/6J mice. Particulars: 24 h. On the procedure: FIG. 56 depicts serologic toxicology results from C57BL/6J mice 24 hours after administration of saline (control), β-GalSaline or β-GalExt. PFOc. Data shown as box and whisker plot±s.d. of n=5 technical replicates. Statistical significance determined using Student's t-test and represented as * p<0.05; all other comparisons were found not to be significant (p>0.05).
Finally, to assess the potential for acute toxicity of the fluorous dispersant, serologic chemistry analysis and histology was performed 24 hours after treating mice with β-Gal delivered from saline or PFOc extractions. […] Reduction of this marker can indicate a transient impairment of kidney and/or liver function.

Another data set concerns the target BSA (Bos taurus, UniProt P02769). In words: 19F NMR of PFNA with BSA. It counts as binding, bovine. From the text: This further supported the conclusion that, like TFE, adsorption of PFNA to protein surfaces aligned the fluorinated tail parallel to the solvent accessible exterior, with further stabilization via F . . . H bonding with surface N—H groups (FIG. 12, FIGS. 12A-12E, and FIG. 13). This ultimately generated the fluorine rich coating that altered water accessibility and promoted secondary structure.

A further data set has as its system IgG. In words: Surface plasmon resonance, IgG. It counts as binding, rabbit. Particulars: after reference correction. The source says:
FIGS. 14A-14L depict circular dichroism spectra of Hb (FIG. 14A), GFP (FIG. 14B), BSA (FIG. 14C), β-Gal (FIG. 14D), rabbit serum IgG (FIG. 14E), transferrin (FIG. 14F), and urease (FIG. 14G) in the absence (black line) or presence (dashed lines) of PFNA. Increasing dash sequence indicated higher concentration of PFNA. FIG. 14H: Change in molar ellipticity at 216 nm (Δθ216) of PFNA-treated proteins, relative to native controls, as a function of increasing ligand concentration. FIG. 14I: Percentage change in secondary structural motifs of Hb, β-Gal and IgG between the native protein and 1 mM PFNA treated samples. β-sheet structures were further differentiated into parallel and antiparallel conformations. Hb, β-Gal and IgG were prioritized for analysis based on their significant spectral shift in the presence of 1 mM PFNA. FIGS. 14J-14L: Sensograms for BSA (FIG. 14J), β-gal (FIG. 14K), and IgG (FIG. 14L) showing relative response (R.U.) at 10, 25, 50, 75, and 100 μM.
To test this assertion, PFNA binding to three exemplary proteins, BSA, β-Gal and IgG, was studied via isothermal titration calorimetry (ITC) and surface plasmon resonance (SPR) techniques. […] SPR analysis yielded similar results, with sensorgrams (FIGS. 14J-14L) that diverged from a simple 1:1 ligand-protein model. […]
For orientation: SPR reads the build-up and loss of mass on a sensor chip optically.

For a further data set, the system named is HepG2 cells. The data set is described as follows: HepG2 MTT viability assay (Example 2). It counts as cell-based, human. Particulars: Homo sapiens, HepG2, 37 °C overnight. On the procedure: FIG. 28 depicts a viability assay for HepG2 cells treated with two first generation compounds and two second generation compounds.
Next, viability assays were performed by seeding HepG2 (liver cancer cell line) onto 96 well plates and allowing the cells to adhere overnight. DMEM cell culture media containing various concentrations of each FTag compound were then added, and the plates were incubated at 37 °C overnight. The supernatant was then removed and MTT viability dyes were added to each well and allowed to convert for 2 hours. Dye absorbance for each condition was then compared to positive (20% DMSO) and negative (blank media) controls to calculate % viability (FIG. 28).
For orientation: Tetrazolium dyes change colour on reduction, which living cells bring about.

Setting [3] is: β-Gal delivered from PFOc vs saline.

Sequence of BSA (P02769 25-607): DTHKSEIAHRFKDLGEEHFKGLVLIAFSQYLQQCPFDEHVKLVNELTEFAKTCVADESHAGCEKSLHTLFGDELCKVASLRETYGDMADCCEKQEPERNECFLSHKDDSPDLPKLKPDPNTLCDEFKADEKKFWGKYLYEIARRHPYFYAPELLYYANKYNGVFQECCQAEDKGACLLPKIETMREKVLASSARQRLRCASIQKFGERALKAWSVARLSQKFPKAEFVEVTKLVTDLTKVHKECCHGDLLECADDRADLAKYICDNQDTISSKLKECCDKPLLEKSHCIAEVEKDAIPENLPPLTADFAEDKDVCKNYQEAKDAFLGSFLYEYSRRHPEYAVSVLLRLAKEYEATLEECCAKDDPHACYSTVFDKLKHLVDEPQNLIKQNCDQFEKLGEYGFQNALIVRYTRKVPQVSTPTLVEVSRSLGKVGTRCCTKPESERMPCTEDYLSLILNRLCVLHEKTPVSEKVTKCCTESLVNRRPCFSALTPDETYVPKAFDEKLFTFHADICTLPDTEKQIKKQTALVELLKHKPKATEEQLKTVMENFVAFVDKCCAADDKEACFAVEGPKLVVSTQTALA

Take “β-Gal: β-Galactosidase (β-Gal), dissolved in PBS/saline or dispersed in PFOc”: in data set [1] (native β-Gal administered in saline), the “serum half-life t1/2” value worked out at 6.6 min. Also, in data set [1] (β-Gal delivered from PFOc dispersion (1 mM PFNA), extracted into saline), the “serum half-life t1/2” value was found to be 7.9 min. For the same molecule, the “histologic analysis of vital organs” value in data set [2] (kidney, liver, lung, spleen) was “did not identify pathologic signs of necrosis, cellular infiltration, inflammation, or hemorrhage”. Besides, in data set [2] (setting [3]), the “albumin/globulin (ALB/GLOB) ratio” value was “statistically significant reduction”; the “other renal (CREA, BUN, TP) and hepatic (ALT, AST, ALKP) markers” value is “absence of statistically significant changes”.
By IC50 is commonly meant the concentration that gives 50% inhibition. A high value points to weaker potency in that assay. For `O=C(O)C(F)(F)C(F)(F)C(F)(F)C(F)(F)C(F)(F)C(F)(F)C(F)(F)C(F)(F)F` [Compound 7, perfluoronanonic acid], at BSA, the “19F NMR peak change upon interaction” value is given as “broadening of PFNA's peaks”. Also, the SPR response entry in the data set on IgG was “negative responses”. In the data set with HepG2 cells, this molecule returned an IC50 of 540 µM.
